# Measurements published in paper PMC9723946 (The Journal of Biological Chemistry, 2022).
# Where no end group is shown, it is not given here. Ahx = NCCCCCC(=O)O
# B1: USP10 peptide F13L (SPOT array) (peptide)
# peptide: HSPQYIFGDLSPDEFNQFFV
# B2: USP10 peptide F13I (SPOT array) (peptide)
# peptide: HSPQYIFGDISPDEFNQFFV
# B3: USP10 peptide F13V (SPOT array) (peptide)
# peptide: HSPQYIFGDVSPDEFNQFFV
# B4: USP10 peptide G11A (SPOT array) (peptide)
# peptide: HSPQYIFADFSPDEFNQFFV
# B5: USP10 peptide F13W (SPOT array) (peptide)
# peptide: HSPQYIFGDWSPDEFNQFFV
# B6: USP10 peptide F13Y (SPOT array) (peptide)
# peptide: HSPQYIFGDYSPDEFNQFFV
# B7: native USP10 peptide HSPQYIFGDFSPDEFNQFFV (SPOT array) (peptide)
# peptide: HSPQYIFGDFSPDEFNQFFV
# B8: Caprin1 peptide D375E (SPOT array) (peptide)
# peptide: QGPYNFIQESMLDFENQTLD
# B9: Caprin1 peptide Y370F (SPOT array) (peptide)
# peptide: QGPFNFIQDSMLDFENQTLD
# B10: Caprin1 peptide N371V (SPOT array) (peptide)
# peptide: QGPYVFIQDSMLDFENQTLD
# B11: Caprin1 peptide M377F (SPOT array) (peptide)
# peptide: QGPYNFIQDSFLDFENQTLD
# B12: Caprin1 peptide N371S (SPOT array) (peptide)
# peptide: QGPYSFIQDSMLDFENQTLD
# B13: Caprin1 peptide N371W (SPOT array) (peptide)
# peptide: QGPYWFIQDSMLDFENQTLD
# B14: Caprin1 peptide I373L (SPOT array) (peptide)
# peptide: QGPYNFLQDSMLDFENQTLD
# B15: Caprin1 peptide N371H (SPOT array) (peptide)
# peptide: QGPYHFIQDSMLDFENQTLD
# B16: Caprin1 peptide N371D (SPOT array) (peptide)
# peptide: QGPYDFIQDSMLDFENQTLD
# B17: Caprin1 peptide N371R (SPOT array) (peptide)
# peptide: QGPYRFIQDSMLDFENQTLD
# B18: Caprin1 peptide N371M (SPOT array) (peptide)
# peptide: QGPYMFIQDSMLDFENQTLD
# B19: Caprin1 peptide N371C (SPOT array) (peptide)
# peptide: QGPYCFIQDSMLDFENQTLD
# B20: Caprin1 peptide S376C (SPOT array) (peptide)
# peptide: QGPYNFIQDCMLDFENQTLD
# B21: Caprin1 peptide N371T (SPOT array) (peptide)
# peptide: QGPYTFIQDSMLDFENQTLD
# B22: Caprin1 peptide N371Y (SPOT array) (peptide)
# peptide: QGPYYFIQDSMLDFENQTLD
# B23: Caprin1 peptide L378I (SPOT array) (peptide)
# peptide: QGPYNFIQDSMIDFENQTLD
# B24: Caprin1 peptide N371Q (SPOT array) (peptide)
# peptide: QGPYQFIQDSMLDFENQTLD
# B25: Caprin1 peptide N371K (SPOT array) (peptide)
# peptide: QGPYKFIQDSMLDFENQTLD
# B26: Caprin1 peptide M377Y (SPOT array) (peptide)
# peptide: QGPYNFIQDSYLDFENQTLD
# B27: Caprin1 peptide N371E (SPOT array) (peptide)
# peptide: QGPYEFIQDSMLDFENQTLD
# B28: Caprin1 peptide N371I (SPOT array) (peptide)
# peptide: QGPYIFIQDSMLDFENQTLD
# B29: Caprin1 peptide N371L (SPOT array) (peptide)
# peptide: QGPYLFIQDSMLDFENQTLD
# B30: native Caprin1 peptide QGPYNFIQDSMLDFENQTLD (SPOT array) (peptide)
# peptide: QGPYNFIQDSMLDFENQTLD
# B31: Caprin1 peptide N371F (SPOT array) (peptide)
# peptide: QGPYFFIQDSMLDFENQTLD
# B32: Caprin1 peptide I373F (SPOT array) (peptide)
# peptide: QGPYNFFQDSMLDFENQTLD
# B33: Caprin1-derived dodecamer reporter peptide F*-YNFIQDSMLDFE (peptide)
# peptide: {fluorescein-Ahx}-YNFIQDSMLDFE
# Molecular target: T1, His-tagged G3BP1 NTF2 (peptide arrays) (human, UniProt Q13283 1-139)
# T1 sequence (Q13283 1-139): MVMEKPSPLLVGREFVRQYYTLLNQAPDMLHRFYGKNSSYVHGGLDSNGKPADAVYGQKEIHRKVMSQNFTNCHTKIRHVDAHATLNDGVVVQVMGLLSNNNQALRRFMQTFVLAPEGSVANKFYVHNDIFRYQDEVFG
# Experiment: peptide or protein array
row,binding result,Binder
1,binds,B1
2,binds,B2
3,binds,B3
4,binds,B4
5,binds,B5
6,binds,B6
7,binds,B7

# Molecular target: T1, His-tagged G3BP1 NTF2 (peptide arrays)
# Experiment: peptide or protein array
# Remark: another data set of the same source
row,binding result,Binder
1,binds,B8
2,binds,B9
3,binds,B10
4,binds,B11
5,binds,B12
6,binds,B13
7,binds,B14
8,binds,B15
9,binds,B16
10,binds,B17
11,binds,B18
12,binds,B19
13,binds,B20
14,binds,B21
15,binds,B22
16,binds,B23
17,binds,B24
18,binds,B25
19,binds,B26
20,binds,B27
21,binds,B28
22,binds,B29
23,binds,B30
24,binds,B31
25,binds,B32

# Molecular target: G3BP1 NTF2-like domain (1-139), WT (human, UniProt Q13283 1-139)
# Sequence (Q13283 1-139): as above
# Experiment: fluorescence polarisation
row,Kd,Binder
1,1.7 µM,B33

# Molecular target: G3BP1 NTF2-like domain (1-139) F15W (human, UniProt Q13283 1-139, F15W)
# Sequence (Q13283 1-139 F15W): as the sequence (Q13283 1-139) above, with F15W counted along it
# Experiment: fluorescence polarisation
row,Kd,Binder
1,9.3 µM,B33

# Molecular target: G3BP1 NTF2-like domain (1-139) F33W (human, UniProt Q13283 1-139, F33W)
# Sequence (Q13283 1-139 F33W): as the sequence (Q13283 1-139) above, with F33W counted along it
# Experiment: fluorescence polarisation
row,Kd,Binder
1,79.3 µM,B33

# Molecular target: G3BP1 NTF2-like domain (1-139) F124W (human, UniProt Q13283 1-139, F124W)
# Sequence (Q13283 1-139 F124W): as the sequence (Q13283 1-139) above, with F124W counted along it
# Experiment: fluorescence polarisation
row,Kd,Binder
1,1.7 µM,B33

# Molecular target: G3BP1 NTF2-like domain (1-139) F15/33W (human, UniProt Q13283 1-139, F15W | F33W)
# Sequence (Q13283 1-139 F15W/F33W): as the sequence (Q13283 1-139) above, with F15W, F33W counted along it
# Experiment: fluorescence polarisation
row,Kd,Binder
1,256 µM,B33

# Molecular target: G3BP1 NTF2-like domain (1-139) F15/124W (human, UniProt Q13283 1-139, F15W | F124W)
# Sequence (Q13283 1-139 F15W/F124W): as the sequence (Q13283 1-139) above, with F15W, F124W counted along it
# Experiment: fluorescence polarisation
row,Kd,Binder
1,14.4 µM,B33

# Molecular target: G3BP1 NTF2-like domain (1-139) F33/124W (human, UniProt Q13283 1-139, F33W | F124W)
# Sequence (Q13283 1-139 F33W/F124W): as the sequence (Q13283 1-139) above, with F33W, F124W counted along it
# Experiment: fluorescence polarisation
row,Kd,Binder
1,133 µM,B33

# Molecular target: G3BP1 NTF2-like domain (1-139) TripleW (F15W/F33W/F124W) (human, UniProt Q13283 1-139, F15W | F33W | F124W)
# Sequence (Q13283 1-139 F15W/F33W/F124W): as the sequence (Q13283 1-139) above, with F15W, F33W, F124W counted along it
# Experiment: fluorescence polarisation
row,Kd,Binder
1,240 µM,B33

# Molecular target: G3BP1 NTF2-like domain (1-139) S38G (human, UniProt Q13283 1-139, S38G)
# Sequence (Q13283 1-139 S38G): as the sequence (Q13283 1-139) above, with S38G counted along it
# Experiment: fluorescence polarisation
row,Kd,Binder
1,10.5 µM,B33

# Molecular target: G3BP1 NTF2-like domain (1-139) S38T (human, UniProt Q13283 1-139, S38T)
# Sequence (Q13283 1-139 S38T): as the sequence (Q13283 1-139) above, with S38T counted along it
# Experiment: fluorescence polarisation
row,Kd,Binder
1,11.8 µM,B33

# Molecular target: G3BP1 NTF2-like domain (1-139) S38A (human, UniProt Q13283 1-139, S38A)
# Sequence (Q13283 1-139 S38A): as the sequence (Q13283 1-139) above, with S38A counted along it
# Experiment: fluorescence polarisation
row,Kd,Binder
1,7.3 µM,B33
